Laboratory results: the supplement of paper PMC10567573

B1: TFE3 (parent)
chain: FHLGLEDILMEEEEGVVGGLSGGA

Variants of: B1
Experiment: protein stability index of a GFP-peptide fusion (GPS, HEK-293T) (PSI 1-6); higher = more stable
Conditions: c terminus: a fixed tail appended
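Note: lentivirally expressed fusions sorted by FACS into six bins by GFP to DsRed ratio, PSI derived from sequencing read proportions per bin multiplied by bin number.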

Variant | protein stability index
FHLGLEDILMEEEEGVVGGMSGGA | 3.19
FHLGLEDILMEEEEGVVGGWSGGA | 3.02
FHLGLEDILMEEEEGVVGGPSGGA | 3.79
FHLGLEDILMEEEEGVVGGTSGGA | 4.11
FHLGLEDILMEEEEGVVGGISGGA | 4.08
FHLGLEDILMEEEEGVVGGQSGGA | 4.47
FHLGLEDILMEEEEGVVGGCSGGA | 3.91
FHLGLEDILMEEEEGVVGGKSGGA | 4.55
FHLGLEDILMEEEEGVVGGVSGGA | 4.69
FHLGLEDILMEEEEGVVGGESGGA | 4.99
FHLGLEDILMEEEEGVVGGASGGA | 4.74
FHLGLEDILMEEEEGVVGGDSGGA | 4.92
FHLGLEDILMEEEEGVVGGSSGGA | 4.52
FHLGLEDILMEEEEGVVGGGSGGA | 3.98
FHLGLEDILMEEEEGVVGGNSGGA | 4.59
FHLGLEDILMEEEEGVVGGFSGGA | 4.09
FHLGLEDILMEEEEGVVGGHSGGA | 4.24
FHLGLEDILMEEEEGVVGGYSGGA | 3.41
FHLGLEDILMEEEEGVVGGRSGGA | 3.99
FHLGLEDILMEEEEGVVGGLGGGA | 4.07
FHLGLEDILMEEEEGVVGGLLGGA | 3.01
FHLGLEDILMEEEEGVVGGLWGGA | 2.3
FHLGLEDILMEEEEGVVGGLMGGA | 3.54
FHLGLEDILMEEEEGVVGGLQGGA | 4.07

Variant | protein stability index
FHLGLEDILMEEEEGVVGGLTGGA | 3.54
FHLGLEDILMEEEEGVVGGLEGGA | 4.65
FHLGLEDILMEEEEGVVGGLHGGA | 3.44
FHLGLEDILMEEEEGVVGGLRGGA | 3.7
FHLGLEDILMEEEEGVVGGLVGGA | 3.81
FHLGLEDILMEEEEGVVGGLKGGA | 3.48
FHLGLEDILMEEEEGVVGGLDGGA | 3.95
FHLGLEDILMEEEEGVVGGLAGGA | 3.9
FHLGLEDILMEEEEGVVGGLNGGA | 3.6
FHLGLEDILMEEEEGVVGGLIGGA | 3.27
FHLGLEDILMEEEEGVVGGLPGGA | 3.35
FHLGLEDILMEEEEGVVGGLCGGA | 3.48
FHLGLEDILMEEEEGVVGGLYGGA | 2.77
FHLGLEDILMEEEEGVVGGLSGMA | 3.19
FHLGLEDILMEEEEGVVGGLSGIA | 3.17
FHLGLEDILMEEEEGVVGGLSGQA | 3.89
FHLGLEDILMEEEEGVVGGLSGVA | 3.98
FHLGLEDILMEEEEGVVGGLSGTA | 3.56
FHLGLEDILMEEEEGVVGGLSGAA | 3.37
FHLGLEDILMEEEEGVVGGLSGRA | 3.29
FHLGLEDILMEEEEGVVGGLSGKA | 3.89
FHLGLEDILMEEEEGVVGGLSGEA | 4.87
FHLGLEDILMEEEEGVVGGLSGDA | 4.04
FHLGLEDILMEEEEGVVGGLSGLA | 3.58

Variant | protein stability index
FHLGLEDILMEEEEGVVGGLSGFA | 2.7
FHLGLEDILMEEEEGVVGGLSGCA | 3.21
FHLGLEDILMEEEEGVVGGLSGSA | 3.52
FHLGLEDILMEEEEGVVGGLSGNA | 3.96
FHLGLEDILMEEEEGVVGGLSGWA | 2.15
FHLGLEDILMEEEEGVVGGLSGHA | 3.43
FHLGLEDILMEEEEGVVGGLSGPA | 4
FHLGLEDILMEEEEPVVGGLSGGA | 3.59
FHLGLEDILMEEEEMVVGGLSGGA | 3.05
FHLGLEDILMEEEENVVGGLSGGA | 3.84
FHLGLEDILMEEEEHVVGGLSGGA | 3.25
FHLGLEDILMEEEEVVVGGLSGGA | 3.64
FHLGLEDILMEEEETVVGGLSGGA | 3.51
FHLGLEDILMEEEEIVVGGLSGGA | 2.9
FHLGLEDILMEEEEYVVGGLSGGA | 3.04
FHLGLEDILMEEEEWVVGGLSGGA | 2.3
FHLGLEDILMEEEESVVGGLSGGA | 3.92
FHLGLEDILMEEEERVVGGLSGGA | 4.03
FHLGLEDILMEEEEQVVGGLSGGA | 4.23
FHLGLEDILMEEEELVVGGLSGGA | 3.1
FHLGLEDILMEEEEKVVGGLSGGA | 4.11
FHLGLEDILMEEEEGVVGGLSGGK | 3.98
FHLGLEDILMEEEEGVVGGLSGGV | 3.74
FHLGLEDILMEEEEGVVGGLSGGI | 2.66

Variant | protein stability index
FHLGLEDILMEEEEGVVGGLSGGR | 3.86
FHLGLEDILMEEEEGVVGGLSGGQ | 4.24
FHLGLEDILMEEEEGVVGGLSGGY | 2.68
FHLGLEDILMEEEEGVVGGLSGGW | 1.75
FHLGLEDILMEEEEGVVGGLSGGT | 3.52
FHLGLEDILMEEEEGVVGGLSGGN | 3.65
FHLGLEDILMEEEEGVVGGLSGGE | 3.9
FHLGLEDILMEEEEGVVGGLSGGH | 3.25
FHLGLEDILMEEEEGVVGGLSGGF | 2.39
FHLGLEDILMEEEEGVVGGLSGGC | 3.73
FHLGLEDILMEEEEGVVGGLSGGS | 3.82
FHLGLEDILMEEEEGVVGGLSGGD | 4.17
FHLGLEDILMEEEEGVVGGLSGGP | 3.07
FHLGLEDILMEEEEGVVGGLSGGG | 4.32
FHLGLEDILMEEEEGVVGGLSGGM | 3.12
FHLGLEDILMEEEEGVVGGLSGGL | 2.94
FHLGLEDILMEEEEGDVGGLSGGA | 4.07
FHLGLEDILMEEEEGFVGGLSGGA | 2.83
FHLGLEDILMEEEEGHVGGLSGGA | 3.76
FHLGLEDILMEEEEGYVGGLSGGA | 3.34
FHLGLEDILMEEEEGIVGGLSGGA | 4.12
FHLGLEDILMEEEEGMVGGLSGGA | 3.58
